Reference: paper PMC7437470

How the values were obtained:
[1] = molecular target: Porcine Kallikrein (porcine)
[2] = molecular target: Porcine Kallikrein (porcine); assay: enzyme inhibition kinetics (Morrison equation); serial dilution of the serpin, pre-incubated with the protease before the fluorogenic substrate; kallikrein 15 nM with Gly-Pro-Arg-NHMec 9.1 uM, chymotrypsin 2 ug/mL with Ala-Ala-Pro-Phe-NHMec 42.9 uM; 37°C; sodium acetate buffer pH 7.0; Ki from apparent Ki; triplicate
[3] = molecular target: Human Cathepsin G (human) (UniProt P08311)
UniProt P08311, sequence (P08311 21-244): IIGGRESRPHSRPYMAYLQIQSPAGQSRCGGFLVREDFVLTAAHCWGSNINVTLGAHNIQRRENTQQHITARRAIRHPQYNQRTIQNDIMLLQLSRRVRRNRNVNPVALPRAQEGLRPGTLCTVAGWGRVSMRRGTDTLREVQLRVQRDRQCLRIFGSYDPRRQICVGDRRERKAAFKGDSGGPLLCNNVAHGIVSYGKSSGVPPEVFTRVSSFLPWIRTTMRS

Human Chymase (human) = Human Chymase (human) (UniProt P23946)
UniProt P23946, sequence (P23946 22-247): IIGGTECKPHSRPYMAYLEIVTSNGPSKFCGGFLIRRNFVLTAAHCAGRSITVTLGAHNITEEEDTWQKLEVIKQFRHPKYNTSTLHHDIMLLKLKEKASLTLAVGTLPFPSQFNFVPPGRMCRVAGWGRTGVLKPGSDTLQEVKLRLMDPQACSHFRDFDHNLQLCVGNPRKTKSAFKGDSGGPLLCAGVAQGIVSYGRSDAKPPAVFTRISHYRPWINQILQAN

[4] = molecular target: Human Neutrophil elastase (human) (UniProt P08246)
UniProt P08246, sequence (P08246 30-267): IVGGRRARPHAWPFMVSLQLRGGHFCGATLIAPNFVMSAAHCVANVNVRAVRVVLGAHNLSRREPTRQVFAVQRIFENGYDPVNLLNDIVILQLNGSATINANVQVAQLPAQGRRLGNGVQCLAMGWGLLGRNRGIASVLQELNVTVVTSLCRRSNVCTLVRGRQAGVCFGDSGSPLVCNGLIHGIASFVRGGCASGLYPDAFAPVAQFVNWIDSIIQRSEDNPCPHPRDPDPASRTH

[5] = molecular target: Bovine α-Chymotrypsin (bovine); assay: enzyme inhibition kinetics (Morrison equation); serial dilution of the serpin, pre-incubated with the protease before the fluorogenic substrate; kallikrein 15 nM with Gly-Pro-Arg-NHMec 9.1 uM, chymotrypsin 2 ug/mL with Ala-Ala-Pro-Phe-NHMec 42.9 uM; 37°C; sodium acetate buffer pH 7.0; Ki from apparent Ki; triplicate

Porcine Kallikrein (porcine), sequence (P00752 other isoform, or with tags, fused parts or gaps): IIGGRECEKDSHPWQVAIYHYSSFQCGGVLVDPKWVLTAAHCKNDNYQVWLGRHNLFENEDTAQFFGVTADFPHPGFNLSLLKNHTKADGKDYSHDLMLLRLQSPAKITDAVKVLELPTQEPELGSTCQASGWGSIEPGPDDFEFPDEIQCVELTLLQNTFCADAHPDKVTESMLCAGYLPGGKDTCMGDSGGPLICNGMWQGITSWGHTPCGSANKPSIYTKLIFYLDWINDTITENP

Substance	inhibition of kallikrein (150 nM) activity on a fluorogenic substrate, rFhSrp1 at 10 and 500 nM (48% at 10 nM) [1] [%]	Ki [2] [nM]	inhibition of cathepsin G (100 nM) activity on a fluorogenic substrate, rFhSrp2 at 10 and 500 nM (only slightly changed at 10 nM) [3] [%]	inhibition of chymase (0.6 uM) activity on a fluorogenic substrate, rFhSrp2 at 10 and 500 nM (only slightly changed at 10 nM) (Human Chymase (human)) [%]	inhibition of neutrophil elastase (50 nM) activity on a fluorogenic substrate, rFhSrp2 at 10 and 500 nM (only slightly changed at 10 nM) [4] [%]	Ki [5] [nM]
recombinant Fasciola hepatica serpin 1 (natural protein)	96	40				
recombinant Fasciola hepatica serpin 2 (natural protein)			97.5	100	99.9	0.07
